Laboratory results published in patent US20210063414A1, “METHODS FOR PREVENTING AND/OR TREATING BONE LOSS CONDITIONS BY MODULATING IRISIN” (Dana-Farber Cancer Institute, Inc., priority 2018, published 2021).

Columns and labels:
Assay in all cases: Crosslinking/co-immunoprecipitation/mass spectrometry (TMT quantitative proteomics) to identify irisin receptors
Assay type in all cases: binding
[1] = target: T1, MLO-Y4 cell surface proteins (Mus musculus, UniProt P35762); details: TMT ratio, Cd81 CD81 antigen
T1 construct: endogenous in cells; host or cells: MLO-Y4
T1 sequence (P35762 1-236): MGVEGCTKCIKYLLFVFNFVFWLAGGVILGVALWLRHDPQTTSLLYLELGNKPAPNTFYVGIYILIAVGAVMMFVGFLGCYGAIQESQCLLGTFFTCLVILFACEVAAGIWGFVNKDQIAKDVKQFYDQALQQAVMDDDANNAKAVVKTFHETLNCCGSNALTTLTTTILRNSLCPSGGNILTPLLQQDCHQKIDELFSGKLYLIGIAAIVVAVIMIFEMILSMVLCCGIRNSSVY
Summary of the method: (§1)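 Mouse MLO-Y4 cells were switched to serum-free FreeStyle medium for 4 h, chilled, then exposed to 10 nM His-tagged irisin (or adipsin as control) for 20 min. Cells were crosslinked with 1.5 mM DTSSP (30 min, ice), and bound proteins were pulled down on Ni-NTA and eluted with 250 mM imidazole. Eluates were separated by SDS-PAGE, trypsin-digested in gel, TMT 6-plex labelled and quantified by MS3-based LC-MS/MS on an Orbitrap Fusion Lumos.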

[2] = target: T2, MLO-Y4 cell surface proteins (Mus musculus, UniProt Q791V5); details: co-precipitated protein Mteh2 (MTCH2_MOUSE)
T2 construct: endogenous in cells; host or cells: MLO-Y4
T2 sequence (Q791V5 1-303): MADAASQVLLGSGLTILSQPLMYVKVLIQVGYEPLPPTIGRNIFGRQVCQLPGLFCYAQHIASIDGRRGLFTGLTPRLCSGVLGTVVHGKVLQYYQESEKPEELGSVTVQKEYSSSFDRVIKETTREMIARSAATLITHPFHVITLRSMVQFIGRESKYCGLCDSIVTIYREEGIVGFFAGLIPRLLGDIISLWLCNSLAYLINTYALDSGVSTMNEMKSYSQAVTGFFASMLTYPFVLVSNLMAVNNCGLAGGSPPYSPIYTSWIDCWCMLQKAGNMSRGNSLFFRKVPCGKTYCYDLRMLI
Summary of the method: as §1

[3] = target: T3, MLO-Y4 cell surface proteins (Mus musculus, UniProt Q08189); details: co-precipitated protein Tgm3 (TGM3_MOUSE)
T3 construct: endogenous in cells; host or cells: MLO-Y4
T3 sequence (Q08189 1-693): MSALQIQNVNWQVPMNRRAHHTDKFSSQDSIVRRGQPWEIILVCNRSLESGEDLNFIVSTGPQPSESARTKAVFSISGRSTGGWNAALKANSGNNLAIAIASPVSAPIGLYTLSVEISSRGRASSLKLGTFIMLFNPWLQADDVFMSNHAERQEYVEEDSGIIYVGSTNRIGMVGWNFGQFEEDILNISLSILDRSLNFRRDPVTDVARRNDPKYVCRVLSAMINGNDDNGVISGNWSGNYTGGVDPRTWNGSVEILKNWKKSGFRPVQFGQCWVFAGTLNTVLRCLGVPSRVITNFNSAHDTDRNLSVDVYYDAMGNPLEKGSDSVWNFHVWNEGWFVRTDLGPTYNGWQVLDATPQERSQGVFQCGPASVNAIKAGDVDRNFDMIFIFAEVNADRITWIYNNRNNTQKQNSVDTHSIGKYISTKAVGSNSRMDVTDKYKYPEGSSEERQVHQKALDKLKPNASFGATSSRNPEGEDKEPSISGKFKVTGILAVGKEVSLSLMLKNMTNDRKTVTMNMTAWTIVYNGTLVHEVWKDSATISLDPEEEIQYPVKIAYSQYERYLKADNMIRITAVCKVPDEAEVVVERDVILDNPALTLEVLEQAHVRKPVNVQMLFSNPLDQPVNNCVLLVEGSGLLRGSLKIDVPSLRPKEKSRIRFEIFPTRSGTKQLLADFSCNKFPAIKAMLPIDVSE
Summary of the method: as §1

B1: irisin: secreted cleaved form of FNDC5; recombinant human/mouse irisin with C-terminal his tag produced in HEK293 cells (protein)
chain: DSPSAPVNVTVRHLKANSAVVSWDVLEDEVVIGFAISQQKKDVRMLRFIQEVNTTTRSCALWDLEEDTEYIVHVQAISIQGQSPASEPVLFKTPREAEKMASKNKDEVTMKE
modifications: left off: small tags and cut ends
notes: secreted cleaved form of FNDC5; recombinant human/mouse irisin with C-terminal his tag produced in HEK293 cells
[1]
  irsin/adipsin: 4.05
[2]
  TMT signal-to-noise ratio: 5.766
  irisin/adipsin TMT signal-to-noise ratio: 0.057
[3]
  TMT signal-to-noise ratio: 45.8379
  irisin/adipsin TMT signal-to-noise ratio: 0.167
